The source of these data is the nanobody polyreactivity screen of Harvey et al. (2022).

The nature of the series: yeast display, Sf9 membrane polyspecificity reagent, FACS + sequencing; frameworks hold sequencing errors. In outline:
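Galactose-induced (36–48 hours) yeast carrying a synthetic nanobody display library were exposed to 10% biotinylated, detergent-solubilized Sf9 membrane reagent at 4 °C for 1 hour. FACS followed streptavidin microbead enrichment, using low and high (top ~1%) gates for expression (anti-HA) and reagent binding (streptavidin). Colony PCR, MiSeq 2 × 250 sequencing and CDR-length filtering followed. Labels for polyreactivity reflect the gate of origin.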
With “QVQLVESGGRLVQAGGSLRLSCAASGSTFVQNAMGWYRQATGKERELVAAISKSGGRTYYADSVKGRFTISRDNAKNTVYLQMNSLKPEDTAVYYCAAVTVASPTRMDYWGQGTQVTVSS”, the “polyreactivity (PSR sort gate)” value was “high polyreactivity”.
On to “QVQLVESGGGLLQAGGSLRLSCAASGLTFVDYAMGWYRQAPGKERELVAAITTSGGSITYYSDSVKGRFTISRDNAKNTVYLQMNSLKPEDTAVYSCNADYGIYTDSFRGPDYESWGQGTQVTVSS”, for which the “polyreactivity (PSR sort gate)” value is reported as “low polyreactivity”.
Regarding “QVQLVESGGGLVQAGGSLRLSCAASGRTFSVNDMGWYRQAPGKERELVAAISFSGGSTYYADSVKGRFTISRDNAKNTVYLQMNSLKPEDTAVYYCAAEAYPSWFYVITGFGIYDYWGQGTQVTVSS”, the “polyreactivity (PSR sort gate)” value is “high polyreactivity”.
With “QVQLVESGGGLVQAGGSLRLSCAASGRIFDLYTMGWYRQAPGKERELVAAIRWSDGSTYYADSVKGRFTISRDNAKNTVYLQMNSLKPEDTAVYYCAADSRTSYYNDDYDYWGQGTQVTVSS”, the “polyreactivity (PSR sort gate)” value is “low polyreactivity”.
Regarding “QVQLVESGGGLVQAGGSLRLSCAASGRSFLYYAMGWYRQAPGKERELVAAIRRGSSTYYADSVKGRFTISRDNAKNTVYLQMNSLKPEDTAVYYCAARGRYRIGPGRYGKRYAYWGQGTQVTVSS”, the “polyreactivity (PSR sort gate)” value is on record as “high polyreactivity”.
“QVQLVESGGGLVQAGGSLRLSCAASGRTFRPYAMGWYRQAPGKERELVAAITSGVSTYYADSVKGRFTISRDNAKNTVYLQMNSLKPEDTAVYYCARGYLRSYRWSYTTRMGYWVQGTQVTVSS”: the “polyreactivity (PSR sort gate)” value was “high polyreactivity”.
With “QVPLVESGGGLVQAGGSLRLSCAASGSTQNRYAMGWYRQAPGKEREFVAAITWRGGSTYADSVKGRFTISRDNAKTTVYLQMYSLKPEDTAVYYCAAQGYKQRVHYDYWGQGNQVTVSS”, the “polyreactivity (PSR sort gate)” value is on record as “high polyreactivity”.
Regarding “QVQLVESGGGLVQAGGSLRLSCAASGSTFYFNAMGWYRQAPGKERELVAAIDWSGGSTYYADSVKGRFTISRDNAKNTVYLQMNSLKPEDTAVYYCNADNYEWGNNYGYWGQGTQVTVSS”, the “polyreactivity (PSR sort gate)” value is “low polyreactivity”.
On to “QVQLVESGGGLVQAGGSLRLSCAASGFIIEAYTMGWYRQAPGKERELVAAITWTGGSTYYADSVKGRFTISRDNAKNTVYLQMNSLKPEDTAVYYCNVPYYSFRELSSYYWGQGTQVTVSS”, for which the “polyreactivity (PSR sort gate)” value was “high polyreactivity”.
The value for “QLHLVESWGGLVQAGGSLRLSCAASGILFQNNDMGSYRQAPGKERELVAAITGSGGSTYYADSVKGRFTISRDNATNTVYLQMNSLKPEDTAVYYCNAVWEYYGKSDYWGQGTQVTVSS” was “low polyreactivity”.
With “QVQLVESGGGLVQAGGSLRLSCAASGFTFVYSVMGWYRQAPGKERELVAAINAGGGSTYYADSVKGRFTISRDNAKNTVYLQMNSLKPEDTAVYYCNARVRVRLGRNWSSYYYWGQGTQVTVSS”, the “polyreactivity (PSR sort gate)” value is “high polyreactivity”.
As for “QVQLVESGGGLVQAGGSLRLSCAASGYTFRFNAMGWYRQAPGKEREFVAAIDFGGAGTYYADSVKGRFTISRDNAKNTVYLQMNSLKPEVTAVYYCNARDGVTTEFDYWGQGTQVTVSS”, the “polyreactivity (PSR sort gate)” value is listed as “low polyreactivity”.
In the case of “QVQLVESGGGLVQAGGSLRLSCAASGLIFLPYAMGWYRQAPGKERELVAAIRWSDDSTYYADSVKGRFTILRDNAKNTVYLQMNSLKPEDTAVYYCNAYVYRPSYIYNYYYEYDYWGQGTQVTVSS”, the “polyreactivity (PSR sort gate)” value was “high polyreactivity”.
The value for “QVQLVESGAGLVHAGGSLRLSCAASGNTFIDYAMGWYRQAPGKERELVASITSGGGSTYYADSVKGRFTISRDNEKNTDYLQMNSLKPEDTAVFFFAAERYNSEAIFRSYDYWGQGSQVTVSS” was “low polyreactivity”; that for “QVQLLESGGGLVQAGGSLRLSCAASGSTFDRNTMGWYRQAPGTVRELVAAITWSSGSTYYADSVKGRFTISRDNAKNTVYLQMNSLKPEDTAVYYCAADRIRYRSRHKYGYWVQGTQVTVSS” was “low polyreactivity”.
Take “QVQLVESGGGLVQAGGSLRLSCAASGFTFAKYAMGWYRQAPGKERELVAAISSSGGRTYYADSVQGRFTLSRDNAKNTDYLQMNSLKPEDTAVYYCAADFSGPFDYWGQGTQVTVSS”: the “polyreactivity (PSR sort gate)” value was “high polyreactivity”.
The value for “QVQLVESGGGLVQAGGSLRLSCAASGRIFTHYAMGWYRQAPGKERELVAAISRTGGTTNYADSVKGRFTISRDNAKNTVYLQMNSLKPEDTADYYCAAVGKGAKDYFKYYSWGQGTQVTVSS” was “high polyreactivity”; that for “QVQLVDSGGGLVQAGGSLRLSCAASGGTISSYAMGWYRQAPGKERELVADITRRGGSTYYADSVKGRFTISRDNAKNTVYLQMNSLKPEDTAVYYCAAEWFRQGHRGLDYWGQGTQVTVSS” was “high polyreactivity”; that for “QVQLVESGGGLVQAGGSLRLSCAASGRIFDVYAKGWYRQAPGKERELFAAISKSDGRTYYADSVKGRFTISRDNAKNTVYLQMNSLKPEDTAVYYCNVRAYGARAGTKMYYWGQGTQVNVSS” was “low polyreactivity”.
In the case of “QDQLVESGGGLVQAGGSLRLSCAASGITFYRNAMGWYRQAPGKERELVAAISRRGGITRYADSVKGRFTISRDNAKNTVYLQMNSLKPEDTAVYYCAKAIGSTALRRATEDYWGQGTQVTVSS”, the “polyreactivity (PSR sort gate)” value is “high polyreactivity”.
Regarding “QVQLVESGGGLVQAGGSLRISCAASGRIYNRNAMGWYRQAPGKERELVAAIRSDGTTNYADSVKGRFTISRDNAKNTVYLQMISLKPEDTAVYYCNAEEGYHWWIIPEEDDYWGQGTQVTVSS”, the “polyreactivity (PSR sort gate)” value is recorded as “low polyreactivity”.
Regarding “QVQLVESGGCLVQAGGSLRLSCAASGLTFGSYGMGWYRQAPGKERELVAAITATGGSTYYADSVKGRFTISRDNAKNTVYLQMNSLKPEDTAVYYCAATRRSKVWLYGYWGQGTQVTVSS”, the “polyreactivity (PSR sort gate)” value is reported as “high polyreactivity”.
As to “QVQLVESGGGLVQAGGSLRLSCAASGFTFPVYTMGWYRQAPGKERELVAAISGSGASTYYADSVKGRFTISRDNAKNTVYLQMNSLKPEDTAVYYCAAPLWRNYYFGWMDYWGQGTQVTVSS”, the “polyreactivity (PSR sort gate)” value is listed as “high polyreactivity”.
For the sequence “QVQLVESGGGLVQAGGSLRLSCAASGFTFTYYAMGWYRQAPGKERELVAAISASGDSTYYADSVKGRFTISRDNAKNTVYLQMNILKPEDTAVYYCAALYWYSRSSWDYDYWGQGTQVTVSS”, the “polyreactivity (PSR sort gate)” value is “high polyreactivity”.
With “QVQLVESGGGLVQAGGSLRLSCAASGRIFSGYAMGWYRQAPGKERELVAAITSVGSTNYADSVKGRFTISRDNAKNTVYLQMNSLKPEDTAVYYCARYSYRGTNVRYDYWGQGTQVTVSS”, the “polyreactivity (PSR sort gate)” value is “high polyreactivity”.
In the case of “QVQLVESGGGLVQAGGSLRLSCAASGFTLTGNAMGWYRQAPGKERELVAAISRNGGSTFYADSVKGRFTISRDNAKNTVYLQMNSLKPEDTAVYYCNASRYRHSAYKYDSWGQGTQVTVSS”, the “polyreactivity (PSR sort gate)” value is “high polyreactivity”.
Turning to “QVQLVESGGGLVQAGGSLRLSCDASGFIFKGNAMGWYRHAPRKERELVAAITNRGGGTYYADSVKGRFTISRDNAKNTVYLQMNSLKPEDTAVYYCAKAYTRPFHPYDYWGQGTQVTVSS”, the “polyreactivity (PSR sort gate)” value is on record as “high polyreactivity”.
Regarding “QVQRVESGGGLVQAGGSLRLSCAASGRIFQIYAMGWYRQAPGKERELVAAIRSGSNTNYADSVKGRFTISRDNAKNTVYLQMNSLKPEDTAVYYCNALYTSLRKDNYWGQGTQVTVST”, the “polyreactivity (PSR sort gate)” value is “low polyreactivity”.
Consider “QVQRVESGGGLVQAGGSLRLSCAASGIIFALYAMGWYRQAPGKERELVAAISTSGGRTYYADSVKGRFTISRDNAKNTVYFQMNSLKPEDTAVYYCAAGYPYWYHSRLAFDYWGQGTQVTVSS”, for which the “polyreactivity (PSR sort gate)” value is on record as “high polyreactivity”.
The value for “QVQLVESGGGLVQAGGSLRLSCAASGSTFYYNAMGWYRQAHGKERELVARISRSGGSTYADSVKGRFTISRDNAKNTVYLQMNSLKPEDTAVYYCNADAYGTPEFTSYAVRYDYWGQGTQVTVSS” was “low polyreactivity”; that for “QVQLVESGGGLVQAGGSLRLSCAASGRIFSKNAMGWYRKAPGKERELVAAISWSGGSTYYADSVKGRFTISRDNAKNTVYLQMNSLKPEDTAVYYCAADSPRYGGYGYWGQGTQVTVSS” was “low polyreactivity”; that for “QVQLVESGRGLVQAGGSLRLSCAASGSIFQKYTMGWYRQAPGKERELVAGINTSGANTYYADSVKGRFTISRDNAKNTVYLQMNSLKPEDTAVYYCAAARPWFAYYYWGQGTQVTVSS” was “high polyreactivity”.
Regarding “QVQLVESGGGLVQAGGSLRLSCAASGSTFRVNTMGWYRQAPGKERELVAAISWSTGTSTYADSVKGRFTISRDNAKNTVYLQMNSLKPEDTAVYYCAAGQPAWGVEYDSWGQGTQVTVSS”, the “polyreactivity (PSR sort gate)” value is “low polyreactivity”.
The entry for “QVHLVESGGGLVQAGGSLRLSCDASGSIFSVNVMGWYRQQPGKERELVAAITSGGSTHYADSVKGRFTISRDNAKNTVYLQMNSLKPEDTAVYDCAARVWYYDYWGQGTQVTVSS” is “high polyreactivity”; for “QDQLVESGGGLVQAGGSLRLSCAASGIIFAKYAMGWSRQAPGNERELVAAINARGGSTYYADSVKGRFTISRDNAMNTVYLQMNSLKPEDTAVYYCAAERRSRFGNGVTYDYWGQGTQVTVSS” it is “high polyreactivity”.
In the case of “QVQLVESGGGLVQAGGSLRLSCAASGRTFAFYTMGWYRQAPGKERELVAAITRTGSTSYADSVKGRFTISRDNAKNTVYLQMNSLKPEDTAVYYCATVGYPYTLWHQMDYWGQGTQVTVSS”, the “polyreactivity (PSR sort gate)” value was “low polyreactivity”.
Consider “QVQLVESGGGLVQAGGSLRLSCAASGSIFGSYALGWYRQAPGKERELVAAISKSGGNTYYADSVKGRFTISRDNAKNTVYLQMNSLKPEDTAVYYCAARYRFLRPKVNYWGQGTQVTVSS”, for which the “polyreactivity (PSR sort gate)” value is listed as “high polyreactivity”.
Take “QVQLVESGGGLVHAGGSHRLSCAASGLIFYDNMGWYRQAPGKERELVAAISSSGGSTSYADSVKGRFTISRDNAKNTVYLQMNSLKPEDTAVYYCAADSYPAYLGFVGFDYWGQGTQVTVSS”: the “polyreactivity (PSR sort gate)” value is “low polyreactivity”.
With “QVQLVESGGGLVQAGGSLRLSCAASGSNFTANAMGLYRQAPGKEREMVADISTGGSTKYADSVKGRFTISRDNAKNTVYLEMNSLKPEDTAVYYCAARSRWARGSAIRGFWGQGTQVTVSS”, the “polyreactivity (PSR sort gate)” value is listed as “high polyreactivity”.
With “QVQLVESGGGLVQAGGSLRLSCPASGRTFKRYAMGWYRQEPGKEMELVASISWRGGSTYYADSVKGRFTISRDNAKNTVYLQMNSLKPEDTAVYYCAAEGPGNVYKLDYWGQGTQVTVSS”, the “polyreactivity (PSR sort gate)” value is reported as “low polyreactivity”.
